From patent publication US20080181891A1 (Pfizer, published 2008)

Experiments:
[1] = target: T1, human insulin-like growth factor I receptor (IGF-IR) (human, UniProt P08069 31-1367); test: cell-based or functional assay
[2] = target: T1, human insulin-like growth factor I …; test: flow cytometry, biotinylated antibody on human cells (MCF-7), half maximal binding
Description: (§1) FACS analysis was performed to determine the affinity of the antibody of the invention for IGF-IR from other animals, particularly the old world monkeys described above. Aliquots of human and monkey cells (cynomolgus) (5×10⁵) were incubated for 1 hour on ice with increasing concentrations of biotinylated anti-IGF-IR antibodies of the invention. The samples were incubated for 30 minutes on ice with streptavidin-conjugated RPE (phycoerythrin). Binding was measured by flow cytometry and analyzed with the histograms of fluorescence intensity (FI2-H) versus cell number (Counts) using CellQuest software. Binding (Kd) was calculated for each antibody from graphs of mean fluorescence intensity versus antibody concentration. In most experiments, binding was measured in cultured human MCF-7 cells and cynomolgus tissue culture cells. Depletion of the antibody was controlled by measuring binding over a range of cell concentrations.

[3] = target: T2, mouse IGF-IR (mouse, UniProt Q60751 31-1373); test: cells treated with antibody, IGF-I stimulation, immunoprecipitation of IGF-IR and Western blot
T2 construct: whole, on cells
Description: To perform immunoprecipitation experiments, cells were plated in DMEM high glucose media supplemented with L-glutamine (0.29 mg/ml), 10% heat-inactivated FBS, and 500 μg/ml each of geneticin, penicillin and streptomycin to 50% confluence in T25 flasks. 100 μl of an antibody of the invention in Hank's buffered saline solution (HBSS; Gibco BRL) at a concentration of 1 μg/ml was added. The plates were incubated for 30 minutes at 37° C. in an incubator and then stimulated cells with IGF-I at 100 ng/ml for 10 minutes at room temperature. The cells were lysed in RIPA buffer (Harlow and Lane, supra) and immunoprecipitated the IGF-IR with 2 μg of pan-specific SC-713 anti-IGF-IR antibody (Santa Cruz) plus protein A agarose beads for 1 hour at 4° C. The beads were pelleted and washed three times with PBS/T (PBS+0.1% Tween-20) and then boiled in 40 μl Laemmli buffer containing 5% ME.
The samples prepared as described above were then analyzed by Western blot. 12 μl of each sample were loaded per lane on 4-10% gradient Novex™ gels run with 1×MES buffer (Novex™). Gels were run at 150V for 1 hour or at 200V for approximately 30 minutes. The gel was transferred to a membrane in Novex™ transfer buffer with 10% methanol either overnight at 100 mA or for 1-1.5 hours at 250 mA. […]

[4] = target: T3, cynomolgus monkey IGF-IR (cynomolgus monkey, UniProt G7P9I7 31-1343); test: flow cytometry, biotinylated antibody on cynomolgus tissue culture cells, half maximal binding
T3 construct: whole, on cells; also called IGF-IR on cynomolgus tissue culture cells
Description: as §1

[5] = target: T1, human insulin-like growth factor I …; test: competition with [125I]-IGF-I for binding to IGF-IR-transfected NIH-3T3 cells, scintillation counting
Description: […] experiments were performed to quantitate the ability of the antibody of the invention to inhibit IGF-I binding to IGF-IR in a cell-based assay. IGF-IR-transfected NIH-3T3 cells (5×10⁴/ml) were plated in 100 μl of DMEM high glucose media supplemented with L-glutamine (0.29 mg/ml), 10% heat-inactivated FBS, and 500 μg/ml each of geneticin, penicillin and streptomycin in 96-well U-bottom plates. The plates were incubated at 37° C., 5% CO₂ overnight to allow cells to attach. The media was decanted from the plates and replaced with 100 μl fresh media per well. For testing, the antibody was diluted in assay media (DMEM high glucose media supplemented with L-glutamine, 10% heat-inactivated FBS, 200 μg/ml BSA and 500 μg/ml each of geneticin, penicillin and streptomycin) to the desired final concentration. All samples were performed in triplicate. The plates were incubated at 37° C. for ten minutes. The [¹²⁵I]-IGF-I was diluted to a concentration of 1 μCi/ml in assay media and added 50 μl per well of the plate. As a control for background radioactivity, cold IGF-I was added to a final concentration of 100 ng/ml. […] The samples were transferred to a scintillation plate, 150 μl OptiPhase Supermix was added and the signal was read using a Wallace MicroBeta counter. […]

T1 sequence (P08069 31-1367): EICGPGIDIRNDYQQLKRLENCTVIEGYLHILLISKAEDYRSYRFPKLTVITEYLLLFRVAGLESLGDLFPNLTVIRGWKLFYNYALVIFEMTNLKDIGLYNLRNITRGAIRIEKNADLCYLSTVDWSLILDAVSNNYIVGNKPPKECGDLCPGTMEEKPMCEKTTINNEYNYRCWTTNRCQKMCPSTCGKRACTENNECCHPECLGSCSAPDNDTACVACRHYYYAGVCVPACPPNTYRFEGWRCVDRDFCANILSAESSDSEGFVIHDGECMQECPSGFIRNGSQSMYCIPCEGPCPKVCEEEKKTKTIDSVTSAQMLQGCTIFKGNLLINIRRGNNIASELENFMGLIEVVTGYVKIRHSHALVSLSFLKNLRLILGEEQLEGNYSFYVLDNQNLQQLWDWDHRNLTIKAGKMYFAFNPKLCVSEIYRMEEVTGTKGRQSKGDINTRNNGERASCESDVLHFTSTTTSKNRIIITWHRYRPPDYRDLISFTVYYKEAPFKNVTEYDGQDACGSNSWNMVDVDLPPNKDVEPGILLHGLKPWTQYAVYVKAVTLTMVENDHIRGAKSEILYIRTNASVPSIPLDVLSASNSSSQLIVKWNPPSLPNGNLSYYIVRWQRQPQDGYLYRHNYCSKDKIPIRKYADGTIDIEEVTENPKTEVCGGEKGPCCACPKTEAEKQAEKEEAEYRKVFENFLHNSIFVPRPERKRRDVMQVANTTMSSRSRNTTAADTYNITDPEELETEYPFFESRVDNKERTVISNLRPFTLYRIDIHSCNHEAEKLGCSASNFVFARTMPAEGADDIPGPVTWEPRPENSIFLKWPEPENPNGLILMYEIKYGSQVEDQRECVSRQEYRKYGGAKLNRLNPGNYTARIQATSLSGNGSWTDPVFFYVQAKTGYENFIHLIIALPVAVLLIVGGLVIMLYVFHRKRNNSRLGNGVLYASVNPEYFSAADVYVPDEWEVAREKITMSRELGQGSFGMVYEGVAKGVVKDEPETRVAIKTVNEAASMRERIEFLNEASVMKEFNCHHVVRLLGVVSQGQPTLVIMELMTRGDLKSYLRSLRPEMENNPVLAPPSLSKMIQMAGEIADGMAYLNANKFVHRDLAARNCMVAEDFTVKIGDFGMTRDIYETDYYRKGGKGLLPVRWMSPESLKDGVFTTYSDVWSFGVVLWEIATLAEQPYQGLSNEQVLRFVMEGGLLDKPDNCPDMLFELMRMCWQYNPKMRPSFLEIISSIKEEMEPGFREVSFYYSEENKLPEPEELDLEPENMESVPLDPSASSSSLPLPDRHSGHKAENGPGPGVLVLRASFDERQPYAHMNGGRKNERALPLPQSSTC
T3 sequence (G7P9I7 entry or part of it): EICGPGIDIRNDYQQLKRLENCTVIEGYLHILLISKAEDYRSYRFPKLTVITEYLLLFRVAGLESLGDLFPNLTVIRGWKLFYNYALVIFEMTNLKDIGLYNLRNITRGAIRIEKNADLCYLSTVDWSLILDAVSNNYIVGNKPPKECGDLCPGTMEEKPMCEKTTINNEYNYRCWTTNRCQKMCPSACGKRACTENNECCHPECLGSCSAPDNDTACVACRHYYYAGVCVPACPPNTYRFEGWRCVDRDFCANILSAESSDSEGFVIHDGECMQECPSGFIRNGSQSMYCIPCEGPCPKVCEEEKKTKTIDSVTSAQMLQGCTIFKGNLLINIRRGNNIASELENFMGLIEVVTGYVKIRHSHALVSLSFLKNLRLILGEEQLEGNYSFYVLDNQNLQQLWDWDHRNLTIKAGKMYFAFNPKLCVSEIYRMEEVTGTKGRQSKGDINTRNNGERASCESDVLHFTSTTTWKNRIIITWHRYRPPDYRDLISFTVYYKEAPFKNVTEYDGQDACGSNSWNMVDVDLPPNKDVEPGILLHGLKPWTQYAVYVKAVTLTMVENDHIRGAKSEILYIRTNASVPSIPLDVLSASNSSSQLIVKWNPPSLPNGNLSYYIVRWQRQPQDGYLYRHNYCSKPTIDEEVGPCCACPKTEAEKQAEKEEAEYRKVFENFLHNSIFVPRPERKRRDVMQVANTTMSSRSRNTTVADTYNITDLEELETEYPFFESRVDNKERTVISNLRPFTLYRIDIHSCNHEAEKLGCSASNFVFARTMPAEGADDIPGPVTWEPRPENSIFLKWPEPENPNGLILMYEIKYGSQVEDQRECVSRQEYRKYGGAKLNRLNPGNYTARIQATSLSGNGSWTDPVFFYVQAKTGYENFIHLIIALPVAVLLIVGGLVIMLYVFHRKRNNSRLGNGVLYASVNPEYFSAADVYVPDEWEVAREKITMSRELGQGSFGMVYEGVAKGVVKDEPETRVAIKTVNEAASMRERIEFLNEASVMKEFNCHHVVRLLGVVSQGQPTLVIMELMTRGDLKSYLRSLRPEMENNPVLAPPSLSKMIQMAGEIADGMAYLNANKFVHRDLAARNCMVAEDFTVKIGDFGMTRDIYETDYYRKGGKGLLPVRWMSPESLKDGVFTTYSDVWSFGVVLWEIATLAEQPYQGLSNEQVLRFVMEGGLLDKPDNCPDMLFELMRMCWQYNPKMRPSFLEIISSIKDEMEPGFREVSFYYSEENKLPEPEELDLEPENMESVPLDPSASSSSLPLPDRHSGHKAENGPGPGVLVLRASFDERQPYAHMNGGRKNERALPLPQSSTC
T2 sequence (Q60751 31-1373): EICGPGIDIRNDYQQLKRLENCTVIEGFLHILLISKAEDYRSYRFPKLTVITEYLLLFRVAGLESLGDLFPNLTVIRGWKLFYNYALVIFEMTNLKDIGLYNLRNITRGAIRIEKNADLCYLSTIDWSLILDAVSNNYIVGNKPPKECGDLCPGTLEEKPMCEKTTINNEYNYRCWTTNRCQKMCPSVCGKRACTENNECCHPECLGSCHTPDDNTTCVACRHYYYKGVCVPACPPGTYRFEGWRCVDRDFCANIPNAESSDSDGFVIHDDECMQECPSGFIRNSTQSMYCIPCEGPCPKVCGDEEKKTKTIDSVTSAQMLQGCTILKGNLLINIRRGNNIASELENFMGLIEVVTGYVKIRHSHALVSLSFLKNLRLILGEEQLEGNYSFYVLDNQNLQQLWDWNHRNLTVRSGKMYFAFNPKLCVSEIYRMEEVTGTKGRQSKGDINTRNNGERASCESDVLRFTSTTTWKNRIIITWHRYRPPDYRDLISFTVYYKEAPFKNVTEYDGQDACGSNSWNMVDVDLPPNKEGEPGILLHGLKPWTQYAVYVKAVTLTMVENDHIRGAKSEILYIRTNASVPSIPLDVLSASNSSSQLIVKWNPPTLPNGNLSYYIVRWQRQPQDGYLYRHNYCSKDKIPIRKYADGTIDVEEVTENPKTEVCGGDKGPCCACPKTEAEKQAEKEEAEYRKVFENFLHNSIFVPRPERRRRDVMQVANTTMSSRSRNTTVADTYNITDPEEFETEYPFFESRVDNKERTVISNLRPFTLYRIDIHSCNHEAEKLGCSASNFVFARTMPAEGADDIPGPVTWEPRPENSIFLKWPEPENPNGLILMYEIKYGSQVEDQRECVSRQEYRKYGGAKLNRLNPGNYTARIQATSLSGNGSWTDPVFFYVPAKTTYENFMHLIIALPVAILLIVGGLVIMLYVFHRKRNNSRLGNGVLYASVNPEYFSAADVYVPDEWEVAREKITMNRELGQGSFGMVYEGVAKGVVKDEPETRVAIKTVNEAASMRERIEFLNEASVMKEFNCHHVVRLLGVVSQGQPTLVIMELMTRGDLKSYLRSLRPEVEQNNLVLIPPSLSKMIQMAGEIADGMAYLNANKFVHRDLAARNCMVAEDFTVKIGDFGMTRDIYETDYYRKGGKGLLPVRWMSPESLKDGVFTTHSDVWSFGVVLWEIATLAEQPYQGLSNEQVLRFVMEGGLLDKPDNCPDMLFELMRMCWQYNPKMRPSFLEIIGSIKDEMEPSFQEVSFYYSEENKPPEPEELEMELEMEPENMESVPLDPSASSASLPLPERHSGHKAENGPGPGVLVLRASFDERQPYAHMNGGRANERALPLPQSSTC

- IC50 of inhibition of IGF-I-induced tyrosine phosphorylation of IGF-IR (ELISA on lysates of IGF-IR-transfected NIH-3T3 cells) [1]: 0.42 µg/mL
- Kd [2]: 0.1 µg/mL
- binding result [3]: no binding (tested: 1 µg/ml)
- Kd [4]: 0.1 µg/mL
- IC50 [5]: 0.4 µg/mL
B1: anti-IGF-IR antibody 2.12.1fx (antibody, human IgG2, kappa, V domains shown)
VH: QVQLVESGGGLVKPGGSLRLSCAASGFTFSDYYMSWIRQAPGKGLEWVSYISSSGSTRDYADSVKGRFTISRDNAKNSLYLQMNSLRAEDTAVYYCARDGVETTFYYYYYGMDVWGQGTTVTVSS
VL: DIQMTQSPSSLSASVGDRVTITCRASQDIRRDLGWYQQKPGKAPKRLIYAASRLQSGVPSRFSGSGSGTEFTLTISSLQPEDFATYYCLQHNNYPRTFGQGTKVEIKR
notes: also called the antibody of the invention; the antibody of this invention
